Results on 39 variants are retold here after the RNAGym collection of RNA variant scans (doi:10.7554/elife.90254).

B1: LINE1-full (parent)
chain: UACGUAGGUGGUUUUCCCCUGAUAGUGCUAAGGGGGCCUGGAAGUUUGGACUGGGCAGAGCUCAACACAGCGUGGCAAAGUGGCUGUGGCUAGACUGCCUCUCUGGAUUCCUCGUCACUCAGCAGGGCAUCUCUGAGAGAAAUGCC

The data set covers variants of B1. Briefly: self-cleavage, relative activity (ratio to wild type); higher = more cleavage; in vitro, sequencing; the parent is a self-cleaving ribozyme.
In the case of UACGUAGGUGGUUUUCCCCUGAUAGUGCUAAGGGGGCCAGGAAGUUUGGACUGGGCAGAGCUCAACACAGCGUGGCAAAGUGGCUGUGGCCAGACUGCCUCUCUGGAUUCCUCGUCACUCAGCAGGGCAUCUCUGAGAGAAAUGCC [U39A U91C], the self-cleavage stood at 0.43.

Consider UACGUAGGUGGUUUUCCCCUGAUAGUGCUAAGGGGGCCAGGAAGUUUGGACUGGGCAGAGCUCAACACAGCGUGGCAAAGUGGCUGUGGCUAGACUGCCUCUCUGGAUUCCUCGUCACUCAGCAGGGCUUCUCUGAGAGAAAUGCC [U39A A129U], for which the self-cleavage worked out at 1.65.

For the variant UACGUAGGUGGUUUUCCCCUGAUAGUGCUAAGGGGGCCAGGAAGUUUGGACUGGGCAGAGCUCAACACAGCGUGGCAAAGUGGCUGUGGCUAGACUGCCUCUCUGGAUUCCUCGUCACUCAGCAGGGCGUCUCUGAGAGAAAUGCC [U39A A129G], the self-cleavage was 1.27.

For UACGUAGGUGGUUUUCCCCUGAUAGUGCUAAGGGGGCCAGGAAGUUUGGACUGGGCAGAGCUCAACACAGCGUGGCAAAGUGGCUGUGGCUAGACUGCCUCUCUGGAUUCCUCGUCGCUCAGCAGGGCAUCUCUGAGAGAAAUGCC [U39A A117G], the self-cleavage amounted to 1.39.

As for UACGUAGGUGGUUUUCCCCUGAUAGUGCUAAGGGGGCCAGGAAGUUUGGACUGGGCAGAGCUCAACACAGCGUGGCAAAGUGGCUGUGGCUAGACUGCCUCUCUUGAUUCCUCGUCACUCAGCAGGGCAUCUCUGAGAGAAAUGCC [U39A G105U], the self-cleavage was 1.23.

For UACGUAGGUGGUUUUCCCCUGAUAGUGCUAAGGGGGCCAGGAAGUUUGGACUGGGCAGAGCUCAACACAGCGUGGCAAAGUGGCUGUGGCUAGACUGCCUCUCCGGAUUCCUCGUCACUCAGCAGGGCAUCUCUGAGAGAAAUGCC [U39A U104C], the self-cleavage came to 1.57.

For the variant UACGUAGGUGGUUUUCCCCUGAUAGUGCUAAGGGGGCCAGGAAGUUUGGACUGGGCAGAGCUCAACACAGCAUGGCAAAGUGGCUGUGGCUAGACUGCCUCUCUGGAUUCCUCGUCACUCAGCAGGGCAUCUCUGAGAGAAAUGCC [U39A G72A], the self-cleavage was found to be 1.81.

On to UACGUAGGUGGUUUUCCCCUGAUAGUGCUAAGGGGGCCAGGAAGUUUGGACUGGGCAGAGCUCAACACAGCGUGGCAAAGUGGCUGUGGCUAGACUGCCUCUCUGAAUUCCUCGUCACUCAGCAGGGCAUCUCUGAGAGAAAUGCC [U39A G106A], for which the self-cleavage was found to be 1.35.

In the case of UACGUAGGUGGUUUUCCCCUGAUAGUGCUAAGGGGGCCAGGAAGUUUGGACUGGGCAGAGCUUAACACAGCGUGGCAAAGUGGCUGUGGCUAGACUGCCUCUCUGGAUUCCUCGUCACUCAGCAGGGCAUCUCUGAGAGAAAUGCC [U39A C63U], the self-cleavage amounted to 0.43.

As to UACGUAGGUGGUUUUCCCCUGAUAGUGCUAAGGGGGCCAGGAAGUUUGGACUGGGCAGAGCUCAACACAGCGUGGCAAAGUGGCUGUGGCUAGACUGCCUCUCUGGUUUCCUCGUCACUCAGCAGGGCAUCUCUGAGAGAAAUGCC [U39A A107U], the self-cleavage was found to be 1.43.

On to UACGUAGGUGGUUUUCCCCUGAUAGUGCUAAGGGGGCCAGGAAGUUUGGACUGGGCAGAGCUCAACACAGCGUGGCAAAGUGGCUGUGGCUAGACUGCCUCUCUGGGUUCCUCGUCACUCAGCAGGGCAUCUCUGAGAGAAAUGCC [U39A A107G], for which the self-cleavage was 1.42.

For the variant UACGUAGGUGGUUUUCCCCUGAUAGUGCUAAGGGGGCCAGGAAGUUUGGACUGGGCAGAGCUCAACACAGCGUGGCAAAGUGGCUGUGGCUGGACUGCCUCUCUGGAUUCCUCGUCACUCAGCAGGGCAUCUCUGAGAGAAAUGCC [U39A A92G], the self-cleavage came to 0.1.

On to UACGUAGGUGGUUUUCCCCUGAUAGUGCUAAGGGGGCCAGGAAGUUUGGACUGGGCAGAGCUCAACACAGCGUGGCAAAGUGGCUGUGGCUUGACUGCCUCUCUGGAUUCCUCGUCACUCAGCAGGGCAUCUCUGAGAGAAAUGCC [U39A A92U], for which the self-cleavage came to 0.57.

As for UACGUAGGUGGUUUUCCCCUGAUAGUGCUAAGGGGGCCAGGAAGUUUGGACUGGGCAGAGCUCAACACAGCGUGGCAAAGUGGCUGUGGCUAGACUGCCUCACUGGAUUCCUCGUCACUCAGCAGGGCAUCUCUGAGAGAAAUGCC [U39A U102A], the self-cleavage is 1.62.

As to UACGUAGGUGGUUUUCCCCUGAUAGUGCUAAGGGGGCCAGGAAGUUUGGACUUGGCAGAGCUCAACACAGCGUGGCAAAGUGGCUGUGGCUAGACUGCCUCUCUGGAUUCCUCGUCACUCAGCAGGGCAUCUCUGAGAGAAAUGCC [U39A G53U], the self-cleavage worked out at 1.63.

Turning to UACGUAGGUGGUUUUCCCCUGAUAGUGCUAAGGGGGCCAGGAAGUUUGGACUGGGCAGAGCUCAACACAGCGUGGCAAAGUGGCUGUGGCUAGACUGCCUCUCUGGAUUCCUCGUCACUCAGCAGGGCAUCUCUGAGAGAACUGCC [U39A A142C], the self-cleavage stood at 1.59.

For the variant UACGUAGGUGGUUUUCCCCUGAUAGUGCUAAGGGGGCCAGGAAGUUUGGACUGGGCAGAACUCAACACAGCGUGGCAAAGUGGCUGUGGCUAGACUGCCUCUCUGGAUUCCUCGUCACUCAGCAGGGCAUCUCUGAGAGAAAUGCC [U39A G60A], the self-cleavage was 0.05.

For the variant UACGUAGGUGGUUUUCCCCUGAUAGUGCUAAGGGGGCCAGGAAGUUUGGACUGGGCAGAGCUCAACACAGCGUGGCAAAGUGGCUGUGGCUAGACUGCCUCUCUGGAUUCCUCAUCACUCAGCAGGGCAUCUCUGAGAGAAAUGCC [U39A G114A], the self-cleavage stood at 1.19.

In the case of UACGUAGGUGGUUUUCCCCUGAUAGUGCUAAGGGGGCCAGGAAGUUUGGACUGGGCAGAGCUCAACACAGCGUGGCAAAGUGGCUGUGGCUAGACUGCCUCUCUGGAUUCCUCUUCACUCAGCAGGGCAUCUCUGAGAGAAAUGCC [U39A G114U], the self-cleavage was determined as 1.15.

Turning to UACGUAGGUGGUUUUCCCCUGAUAGUGCUAAGGGGGCCAGGAAGUUUGGACUGGGCAGAGCUCAACACAGCGUGGCAAAGUGGCUGUGGCUAGACUGCCUCUCUGGAUUCCUCGUCACUUAGCAGGGCAUCUCUGAGAGAAAUGCC [U39A C120U], the self-cleavage stood at 1.56.

For the variant UACGUAGGUGGUUUUCCCCUGAUAGUGCUAAGGGGGCCAGGAAGUUUGGACUGGGCAGAGCUCAACACAGCGUGGCAAAGUGGCUGUGGCUAGACUGCCUCUCUGGAUUCCUCGUCACUCAGCAGGGCAUCUCUGAGUGAAAUGCC [U39A A138U], the self-cleavage is 1.75.

For UACGUAGGUGGUUUUCCCCUGAUAGUGCUAAGGGGGCCAGGAAGUUUGGACUGGGCAGAGCUCAACACAGCGUGGCAAAGUGGCUGUGGCUAGACUGCCUCUCUGGAUUCCUCGUCACUCAGCAGGGCAUCUCUGAGGGAAAUGCC [U39A A138G], the self-cleavage came out at 1.27.

As for UACGUAGGUGGUUUUCCCCUGAUAGUGCUAAGGGGGCCAGGAAGUUUGGACUGGGCAGAGCUCAACACAGCGUGGCAAAGUGGCUGUGGCUAGACUGCCUCUCUGGAUUCCUCGUCACUCAACAGGGCAUCUCUGAGAGAAAUGCC [U39A G122A], the self-cleavage came to 0.54.

For the variant UACGUAGGUGGUUUUCCCCUGAUAGUGCUAAGGGGGCCAGGAAGUUUGGACUGGGCAGAGCUCAACACAGCGUGGCAAAGAGGCUGUGGCUAGACUGCCUCUCUGGAUUCCUCGUCACUCAGCAGGGCAUCUCUGAGAGAAAUGCC [U39A U81A], the self-cleavage amounted to 2.08.

With UACGUAGGUGGUUUUCCCCUGAUAGUGCUAAGGGGGCCAGGAAGUUUGGACUGGGCAGAGCUCAACACAGCGUGGCAAAGUGGCUGUGGCUAGACUGCCCCUCUGGAUUCCUCGUCACUCAGCAGGGCAUCUCUGAGAGAAAUGCC [U39A U100C], the self-cleavage was 1.67.

In the case of UACGUAGGUGGUUUUCCCCUGAUAGUGCUAAGGGGGCCAGGAAGUUUGGACUGGGCAGAGCUCAACACAGCGUGGCAAAGUGGCUGUGACUAGACUGCCUCUCUGGAUUCCUCGUCACUCAGCAGGGCAUCUCUGAGAGAAAUGCC [U39A G89A], the self-cleavage was found to be 0.06.

Regarding UACGUAGGUGGUUUUCCCCUGAUAGUGCUAAGGGGGCCAGGAAGUUUGGACUGGGCAGAGCUCAACACAGCGUGGCAAAGUGGCUGUGGCUAGACUGCCUCUUUGGAUUCCUCGUCACUCAGCAGGGCAUCUCUGAGAGAAAUGCC [U39A C103U], the self-cleavage came out at 1.74.

For the variant UACGUAGGUGGUUUUCCCCUGAUAGUGCUAAGGGGGCCAGGAAGUUUGGACUGGGCAGAGCUCAACACAGCGUGGCAAAGUGGCUGUGGCUAGACUGCCUCUCUGGAUUCCUCGUCACUCAGCAGGGCAUCUCUGAGAGUAAUGCC [U39A A140U], the self-cleavage amounted to 1.23.

Take UACGUAGGUGGUUUUCCCCUGAUAGUGCUAAGGGGGCCAGGAAGUUUGGACCGGGCAGAGCUCAACACAGCGUGGCAAAGUGGCUGUGGCUAGACUGCCUCUCUGGAUUCCUCGUCACUCAGCAGGGCAUCUCUGAGAGAAAUGCC [U39A U52C]: the self-cleavage came to 1.72.

Consider UACGUAGGUGGUUUUCCCCUGAUAGUGCUAAGGGGGCCAGGAAGUUUGGACUGGGCAGAGCUCAACACAGCGUGGCAAAGUGGCUGUGGCUAGACCGCCUCUCUGGAUUCCUCGUCACUCAGCAGGGCAUCUCUGAGAGAAAUGCC [U39A U96C], for which the self-cleavage amounted to 0.19.

With UACGUAGGUGGUUUUCCCCUGAUAGUGCUAAGGGGGCCAGGAAGUUUGGACUGGGCAGAGCUCAACACAGCGUGGCAAAGUGGCUGUGGCUAGACGGCCUCUCUGGAUUCCUCGUCACUCAGCAGGGCAUCUCUGAGAGAAAUGCC [U39A U96G], the self-cleavage came out at 0.14.

Consider UACGUAGGUGGUUUUCCCCUGAUAGUGCUAAGGGGGCCAGGAAGUUUGGACUGGGCAGAGCUCAACACAGCGUGGCAAAGUGGCUGUGGCUAGACAGCCUCUCUGGAUUCCUCGUCACUCAGCAGGGCAUCUCUGAGAGAAAUGCC [U39A U96A], for which the self-cleavage stood at 0.04.

As for UACGUAGGUGGUUUUCCCCUGAUAGUGCUAAGGGGGCCAGGAAGUUUGGACUGGGCAGAGCUCAACACAGCGUAGCAAAGUGGCUGUGGCUAGACUGCCUCUCUGGAUUCCUCGUCACUCAGCAGGGCAUCUCUGAGAGAAAUGCC [U39A G74A], the self-cleavage is 0.88.

As for UACGUAGGUGGUUUUCCCCUGAUAGUGCUAAGGGGGCCAGGAAGUUUGGACUGGGCAGAGCUCAACACAGCGUGGCAUAGUGGCUGUGGCUAGACUGCCUCUCUGGAUUCCUCGUCACUCAGCAGGGCAUCUCUGAGAGAAAUGCC [U39A A78U], the self-cleavage worked out at 1.98.

Turning to UACGUAGGUGGUUUUCCCCUGAUAGUGCUAAGGGGGCCAGGAAGUUUGGACUGGGCAGAGCUCAACACAGCGUGGCAAAGUGGCUGUGGCUAGACUGCCUCUCUGGAUUCCUCGUCACUCAGCGGGGCAUCUCUGAGAGAAAUGCC [U39A A124G], the self-cleavage came out at 0.97.

In the case of UACGUAGGUGGUUUUCCCCUGAUAGUGCUAAGGGGGCCAGGAAGUUAGGACUGGGCAGAGCUCAACACAGCGUGGCAAAGUGGCUGUGGCUAGACUGCCUCUCUGGAUUCCUCGUCACUCAGCAGGGCAUCUCUGAGAGAAAUGCC [U39A U47A], the self-cleavage is 0.93.

As for UACGUAGGUGGUUUUCCCCUGAUAGUGCUAAGGGGGCCAGGAAGUCUGGACUGGGCAGAGCUCAACACAGCGUGGCAAAGUGGCUGUGGCUAGACUGCCUCUCUGGAUUCCUCGUCACUCAGCAGGGCAUCUCUGAGAGAAAUGCC [U39A U46C], the self-cleavage was 1.5.

As to UACGUAGGUGGUUUUCCCCUGAUAGUGCUAAGGGGGCCAGGAAGUUUGGACUGGGCAGAGCUCAACACAGCGUGGCAAAGUGGCUGCGGCUAGACUGCCUCUCUGGAUUCCUCGUCACUCAGCAGGGCAUCUCUGAGAGAAAUGCC [U39A U87C], the self-cleavage is 0.22.

UACGUAGGUGGUUUUCCCCUGAUAGUGCUAAGGGGGCCAGGAAGUUUGGACUGGGCAGAGCUCAACACAGCGUGGCAAAGUGGCUGUGGCUAGGCUGCCUCUCUGGAUUCCUCGUCACUCAGCAGGGCAUCUCUGAGAGAAAUGCC [U39A A94G]: the self-cleavage was determined as 0.36.
